Assay results as given in PMC3324464, “The GPI Anchor Signal Sequence Dictates the Folding and Functionality of the Als5 Adhesin from Candida albicans” (PLoS ONE, 2012).
Entries after “also recorded” stand apart in the source; their conditions may differ.

What was measured:
Candida SC5314 cells = assay: Competition of anti-Als5 antibody binding to Candida cell surface, flow cytometry; format: cell-based, Candida albicans; settings: TRITC secondary antibody, 37 °C 1 hour, mean of 3 independent experiments in duplicates
Procedure: The production of the antibodies was outsourced (Merck India Ltd.). Polyclonal antibodies were generated in rabbit against the protein band obtained after an SDS-PAGE run of GST- Als5-SS. The antibodies detected both GST-Als5 as well as GST-Als5-SS on a Western Blot. The specificity of the generated anti-Als5 antibody was checked by detecting its ability to bind to the Candida cell surface adhesins. For staining, Candida SC5314 cells (a kind gift from Prof. Rajendra Prasad, SLS, JNU) were grown in synthetic dextrose minimal medium at 30°C to an OD600nm of 0.5. 500 µl of the cells were taken in an eppendorf and washed with PBS. […] The cells were then washed thrice with PBS, and the presence of the TRITC labelled secondary Ab on the Candida cells was detected using flow cytometry. To rule out the non-specific interaction of the secondary Ab with the proteins on Candida cell surface, unstained cells were also detected by flow cytometer. […]
In order to confirm the identity of the Als5 protein, we also designed the following experiment. […] Using a TRITC labelled secondary antibody, we detected the bound primary antibodies on the Candida cells by flow cytometry. […]
Figure 2 GST-Als5 specifically blocks binding of anti-Als5 antibody on Candida cell surface. […] This primary antibody was detected by a secondary antibody that was conjugated with TRITC and detected using flow cytometry as described in the text. […]

human collagen type IV = assay: Adhesion assay to immobilised collagen type IV; format: binding; settings: 0.09 mg/ml protein, 37°C 1 hour, anti-GST/HRP, TMB OD650nm; mean of 3 independent experiments in duplicates
Procedure: Freshly purified GST-Als5 and GST-Als5-SS were checked for their ability to bind to human collagen type IV, following a slightly modified method to that reported. Briefly, a 96-well flat bottom plate was coated with different amounts of collagen type IV and incubated overnight at 4°C. The plate was then washed thrice with PBS and twice with elution buffer. […] The wells were blocked for 1 hour with 5% skimmed milk in PBS and then washed 5 times with wash buffer (1% skimmed milk, 0.025% Tween-20 in PBS). Thereafter, 200 µl/well of primary anti-GST antibody (diluted 1∶1,000) was added. After incubation at 37°C for 1 hour, the wells were washed five times with wash buffer and incubated at 37°C with HRP-conjugated secondary antibody (200 µl/well; diluted 1∶20,000) for 1 hour. The wells were rinsed five times with wash buffer, 100 µl of freshly prepared tetramethylbenzidine solution was added to each well and incubated at 37°C for 1 hour. OD650nm was monitored on a plate reader (Spectramax M2). […]
Figure 3 Adhesion of Als5 to collagen type IV involves recognition of carbohydrate residues on collagen type IV but is not solely determined by it. […] Adhesion of the proteins to collagen type IV was correlated to the absorbance at 650 nm observed by the oxidation of TMB, the substrate of HRP. […] Adherence to collagen type IV was detected as already described. […]

B1: GST-Als5: GST fusion of full length Als5 minus the GPI anchor attachment signal sequence, expressed in E. coli (protein)
chain: ITGIFNSIDSLTWSNAGNYAFKGPGYPTWNAVLGWSLDGTSANPGDTFILNMPCVFKFTASQKSVDLTADGVKYATCQFYSGEEFTTFSSLKCTVNNNLRSSIKALGTVTLPIAFNVGGTGSSVDLEDSKCFTAGTNTVTFNDGSKKLSIAVNFEKSTVDQSGYLTTSRFMPSLNKIATLYVAPQCENGYTSGTMGFSTSYGDVAIDCSNVHIGISKGVNDWNHPVTSESFSYTKSCSSFGISITYQNVPAGYRPFIDAYISPSDNNQYQLSYKNDYTCVDDYWQHAPFTLKWTGYKNSDAGSNGIVIVATTRTVTDSTTAVTTLPFNPSVDKTKTIEILQPIPTTTITTSYVGVTTSYSTKTAPIGETATVIVDVPYHTTTTVTSEWTGTITTTTTRTNPTDSIDTVVVQVPLPNPTTTTTQFWSESFTSTTTITNSLKGTDSVIVREPHNPTVTTTEFWSESYATTETITNGPEGTDSVIVREPHNPTVTTTEFWSESYATTETVTNKPEGTDSVIIKEPHNPTVTTTEFWSESYATTETITTGPLGTDSIVIHDPLEESSSTTAIESSDSNISSSAQESSSSVEQSSSIVGLSSSSDIPLSSDMPSSSSTGLTSSESSTVSSYDSDSSSSSELSTFSSSESYSSSISDTTNFWDSSSSDLESTSITWSSSIDAQSSQSVQSVSNSISTSQETTSSSGEESNTSVTDILVSSDASSILNSDISSYYPSSTISLSDDFPHTIAGEPDSRSSSSIASTVEISSDLVSLTSDPTSSFDSSSSLNSDSSSSPFSDESDISASSSFSTLVAPSFSLSSSSSLSLTYPHYVNSTTYHASESESSSVASPSMASESANDDTHTLSESTDTTSSIGTDSSTVTFCRRDNGDGCIVTGMPSSSIDSEQTSDVTTTSSFVASSTPTSAEQSITDNPNIDSSQTSASSSTKSSVSVSDTVVNSISLSETSTLSSDDSTSSDTSISSTTNSDTGNINAGSSHTSTASIKESSIQKTGVMLSSSYLSTKLSSTSDITTELITTELITTELTTIEDNEPNTFTSTPSSHSEIFSSDNSVLSKQVDRESTIKTSPTTDVTTVSSLSVHSTEASTATLGENSFSNVASTPSNIATSLRSTSSSSNHATESSGTVKSEASAEAIPSPPTSTDNRLSYSTEEAKGITYANSGSTNNLITESQVAAPTDSTSVLIENPVVTSTFDDNSSAAVDQPSKTKSIEESIMNPDSTNETNNGFIATLSQAQVPNSLIHSESISTTMAKTTDASINGDSAASNSQPTTLIQQVATSSYNQPLITTYAGSSS
modifications: left off: GST, N-terminal, kept
- inhibition of anti-Als5 antibody binding to Candida cells (in words) (Candida SC5314 cells): could inhibit the interaction of the primary antibodies to the cell surface in a concentration dependent manner; also recorded: inhibited the binding of anti-Als5 antibody to C.albicans cell surface in a concentration dependent manner
- adhesion to collagen type IV (in words) (human collagen type IV): greater adherence to collagen type IV as compared to GST-Als5-SS
